The source of these data is patent US20200199533A1 (KING ABDULLAH UNIVERSITY OF SCIENCE AND TECHNOLOGY, published 2020).

Usually koff stands for a measure of how fast the partners let go of each other. One may read the Kd as the concentration at which binding is half-saturated. Usually kon stands for the rate constant with which the complex forms.

In assay [1] the target is T1, CD34, native glycoprotein from human HSPCs (KG1a, CD34^pos-BM, CD34^pos-UCB, CD34^pos-AML) (human, UniProt P28906 32-385, native glycosylation (about 120-130 kDa form); sialylated O-glycans and tyrosine sulfation are shown to matter for selectin binding).
T1 construct: mature; also called E-selL CD34
T1 sequence (looked up): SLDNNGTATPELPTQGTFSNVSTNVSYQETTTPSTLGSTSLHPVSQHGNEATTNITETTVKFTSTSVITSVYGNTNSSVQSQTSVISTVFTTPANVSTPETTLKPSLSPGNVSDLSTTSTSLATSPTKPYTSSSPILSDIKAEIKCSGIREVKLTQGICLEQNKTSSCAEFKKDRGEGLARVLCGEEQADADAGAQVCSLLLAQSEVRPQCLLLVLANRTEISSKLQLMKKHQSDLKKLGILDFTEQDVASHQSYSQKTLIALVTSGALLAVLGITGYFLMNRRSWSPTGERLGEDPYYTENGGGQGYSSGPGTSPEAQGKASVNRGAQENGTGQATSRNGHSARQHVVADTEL
In words: SPR; CD34 captured from CD34^pos-BM lysate on 563 mAb; apparent rate constant after the last E-Ig injection. On the technique in general: In SPR one partner is held on a chip, and binding of the other changes the refractive index at the surface.

Assay [2] has as its target T1, CD34, native glycoprotein from human …. Description: SPR; CD34 captured from KG1a lysate on 563-mAb, E-Ig injected, 150 mM NaCl; apparent rate constant; 3rd experiment.
Assay [3] addresses CD44 (HCELL), native glycoprotein from human HSPCs (KG1a, CD34^pos fraction) (human) (UniProt P16070). Description: SPR; CD44 captured from KG1a lysate on Hermes-3-mAb, E-Ig injected (3.9-2000 nM), 150 mM NaCl; steady-state model; 3rd experiment.
The target is the same in assay [4]. In words: SPR; CD44 captured from KG1a lysate on Hermes-3-mAb, E-Ig injected, 150 mM NaCl; apparent rate constant; mean ± SEM.
Assay [5] has the same target. In words: SPR; CD44 captured from KG1a lysate on Hermes-3-mAb, E-Ig injected, 150 mM NaCl; apparent rate constant; 3rd experiment.
The target of assay [6] is T1, CD34, native glycoprotein from human …. In words: SPR; CD34 captured from KG1a lysate on 563-mAb, E-Ig injected, 150 mM NaCl; apparent rate constant; 2nd experiment.
Assay [7] addresses CD44 (HCELL), native glycoprotein from human HSPCs (KG1a, CD34^pos fraction) (human) (UniProt P16070). Description: SPR; CD44 captured from KG1a lysate on Hermes-3-mAb, E-Ig injected (3.9-2000 nM), 150 mM NaCl; steady-state model; 1st experiment.
In assay [8] the target is T2, CD43, native glycoprotein from KG1a cells (human, UniProt P16150 20-400, native glycosylation).
T2 construct: mature
T2 sequence (looked up): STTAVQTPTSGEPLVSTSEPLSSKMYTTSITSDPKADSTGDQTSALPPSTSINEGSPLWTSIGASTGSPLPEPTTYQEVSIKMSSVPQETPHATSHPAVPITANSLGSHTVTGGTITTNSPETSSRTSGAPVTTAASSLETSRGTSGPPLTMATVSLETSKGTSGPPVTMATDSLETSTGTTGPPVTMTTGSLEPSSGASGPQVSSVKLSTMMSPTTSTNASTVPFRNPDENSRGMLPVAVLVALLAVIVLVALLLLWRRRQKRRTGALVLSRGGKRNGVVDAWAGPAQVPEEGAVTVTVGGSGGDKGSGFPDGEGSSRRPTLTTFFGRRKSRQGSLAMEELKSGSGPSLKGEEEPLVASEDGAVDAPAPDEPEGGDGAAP
Description: SPR; CD43 captured from KG1a lysate on polyclonal CD43 Ab, E-Ig injected, 150 mM NaCl; apparent rate constant; 1st experiment.

Assay [9] deals with T3, PSGL-1, native glycoprotein from human HSPCs (KG1a, CD34^pos-BM) (human, UniProt Q14242 42-412, native glycosylation and tyrosine sulfation).
T3 construct: mature; also called P-selectin glycoprotein ligand-1
T3 sequence (looked up): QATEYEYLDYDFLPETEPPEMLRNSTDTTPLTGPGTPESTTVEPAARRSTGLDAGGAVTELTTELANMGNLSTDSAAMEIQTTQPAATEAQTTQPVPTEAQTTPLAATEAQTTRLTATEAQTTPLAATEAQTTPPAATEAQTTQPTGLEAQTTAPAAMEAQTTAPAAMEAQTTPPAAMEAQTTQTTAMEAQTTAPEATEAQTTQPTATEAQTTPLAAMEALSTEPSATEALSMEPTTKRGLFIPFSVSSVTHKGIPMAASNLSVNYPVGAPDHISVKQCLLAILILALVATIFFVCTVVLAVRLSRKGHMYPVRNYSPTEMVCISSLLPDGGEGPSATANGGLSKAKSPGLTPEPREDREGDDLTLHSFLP
In words: SPR; PSGL-1 captured from KG1a lysate on KPL-1-mAb, E-Ig injected (3.9-2000 nM), 150 mM NaCl; steady-state model; 2nd experiment.

For assay [10], the target named is T1, CD34, native glycoprotein from human …. Description: SPR; CD34 captured from KG1a lysate on 563-mAb, E-Ig injected (3.9-2000 nM), 150 mM NaCl; steady-state model; 2nd experiment.
Assay [11] addresses T2, CD43, native glycoprotein from KG1a …. Description: SPR; CD43 captured from KG1a lysate on polyclonal CD43 Ab, E-Ig injected (3.9-2000 nM), 150 mM NaCl; steady-state model; 1st experiment.

CD44 (HCELL), native glycoprotein from human HSPCs (KG1a, CD34^pos fraction) (human), sequence (P16070 21-742): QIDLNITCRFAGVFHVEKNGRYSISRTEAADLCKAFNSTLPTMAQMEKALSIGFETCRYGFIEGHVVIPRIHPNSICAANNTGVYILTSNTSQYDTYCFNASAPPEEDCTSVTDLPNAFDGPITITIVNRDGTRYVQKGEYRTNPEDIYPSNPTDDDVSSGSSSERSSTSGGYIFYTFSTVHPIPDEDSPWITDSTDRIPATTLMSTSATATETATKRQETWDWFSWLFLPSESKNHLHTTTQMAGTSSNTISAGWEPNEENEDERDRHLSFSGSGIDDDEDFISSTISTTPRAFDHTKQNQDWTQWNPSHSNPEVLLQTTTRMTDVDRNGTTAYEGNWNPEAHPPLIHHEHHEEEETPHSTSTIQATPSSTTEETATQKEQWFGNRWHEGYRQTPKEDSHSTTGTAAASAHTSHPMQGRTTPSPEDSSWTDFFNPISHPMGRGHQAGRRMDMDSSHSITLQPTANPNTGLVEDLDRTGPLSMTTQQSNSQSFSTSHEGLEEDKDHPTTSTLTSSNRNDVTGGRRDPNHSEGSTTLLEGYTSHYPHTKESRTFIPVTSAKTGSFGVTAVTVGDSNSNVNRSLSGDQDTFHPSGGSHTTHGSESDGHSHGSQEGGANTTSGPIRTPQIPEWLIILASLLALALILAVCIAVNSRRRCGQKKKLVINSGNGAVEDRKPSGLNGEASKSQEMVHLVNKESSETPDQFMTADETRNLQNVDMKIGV

B1: recombinant E-selectin human immunoglobulin chimeric protein (Fc fusion)
chain: WSYNTSTEAMTYDEASAYCQQRYTHLVAIQNKEEIEYLNSILSYSPSYYWIGIRKVNNVWVWVGTQKPLTEEAKNWAPGEPNNRQKDEDCVEIYIKREKDVGMWNDERCSKKKLALCYTAACTNTSCSGHGECVETINNYTCKCDPGFSGLKCEQIVNCTALESPEHGSLVCSHPLGNFSYNSSCSISCDRGYLPSSMETMQCMSSGEWSAPIPACNVVECDAVTNPANGFVECFQNPGSFPWNTTCTFDCEEGFELMGAQSLQCTSSGNWDNEKPTCKAVTCRAVRQPQNGSVRCSHSPAGEFTFKSSCNFTCEEGFMLQGPAQVECTTQGQWTQQIPVCEAFQCTALSNPERGYMNCLPSASGSFRYGSSCEFSCEQGFVLKGSKRLQCGPTGEWDNEKPTCEAVRCDAVHQPPKGLVRCAHSPIGEFTYKSSCAFSCEEGFELHGSTQLECTSQGQWTEEVPSCQVVKCSSLAVPGKINMSCSGEPVFGTVCKFACPEGWTLNGSAARTCGATGHWSGLLPTCEAPTESNIP
Regarding B1, the off-rate (koff) in assay [1] was found to be 0.00019 s⁻¹; in assay [2], 0.000331 s⁻¹; in [4], 0.00019 s⁻¹; in assay [5], 0.000273 s⁻¹; in assay [6] it was 0.00016 s⁻¹; in assay [8], 0.00048 s⁻¹. The dissociation constant (Kd) in assay [3] came to 214 nM; in assay [7] it was 234 nM; in [9], 207 nM; in [10], 268 nM; in [11], 509 nM. In addition, the kon is 903 M⁻¹ s⁻¹ in assay [4], 1280 M⁻¹ s⁻¹ in assay [5], 597 M⁻¹ s⁻¹ in [6] and 944 M⁻¹ s⁻¹ in assay [8].
